Assay results taken from publication PMC4818849, “In vitroassembly of the bacterial actin protein MamK from ‘CandidatusMagnetobacterium casensis’ in the phylumNitrospirae” (Protein & Cell, 2016).

Substrate: Nc1ncnc2c1ncn2[C@@H]1O[C@H](COP(=O)(O)OP(=O)(O)OP(=O)(O)O)[C@@H](O)[C@H]1O
Test: ATPase, malachite green phosphate release, Lineweaver-Burk plot
Assay type: biochemical, Magnetobacterium casense (SeqCode)
Settings: assay buffer of b46: 20 mmol/L Tris-HCl pH 8.0, 0.2 mmol/L MgCl2, 50 mmol/L NaCl, 37°C, kinetic details in supplement
Excerpt: ATPase, malachite green phosphate release, Lineweaver-Burk plot on MamK from 'Candidatus Magnetobacterium casensis' (Mcas MamK) | we calculated the Vmax and Km of the ATPase activity as […]

B1: MamK from 'Candidatus Magnetobacterium casensis' (Mcas MamK) (Magnetobacterium casense (SeqCode)) (protein)
chain: MTKTKILNIGIDLGTSRSVIACDNGVRTFVPSYVGFPKDAVSRKMFGRDVIFGDEAIKHRMALNLFRPFDKGMIKYADTNPESKEYKNALYVAKALLQHLVDLAKEGDQERGVDYIVRGVIGAPALASRKNRKALLDVARGILDGVMISSEPFTVAYGLNLLSNALIIDIGAGTVDLCRMHGTIPTDEDQITTFKAGDYVDQAFYDLITKKYKDVNLTINMVKKFKEENAFISSQGERVFIEVPVKGKPEKRDITDELRQACRMIVPDIVEGIRKLIAEYDPEFQNNLKQNVVLAGGGSQIIGLRKEIEDYMIETLGYGKVIKIEEPLFAGANGAMMLCKDMPDEYWDEVSKR
notes: full-length mamK from Mcas genomic DNA in pET28a and pET22b, E. coli C43 (DE3); His tag removed leaving three N-terminal residues (tagged forms also examined); filament-forming
  Km: 71.02 µM
  kcat: 0.0633 s⁻¹
